Assay results as given in publication PMC7450098, “The maturase HydF enables [FeFe] hydrogenase assembly via transient, cofactor-dependent interactions” (The Journal of Biological Chemistry, 2020).
“And” between values parts separate entries of the source, which are not always exact repeats. Equal values may be shown once.

How the values were obtained:
[1] = molecular target: T1, HydF (TmHydF) (Thermotoga maritima, UniProt Q9WYS6); assay: in vitro reconstitution; spectroscopy; GEMMA; assay type: binding; conditions: anaerobic reconstitution of apo-protein
T1 construct: gene TM_0445; full length, expressed in E. coli Rosetta (II), heat step and phenyl-Sepharose; about 45 kDa; mainly dimer, some tetramer; apo-form reconstituted with [4Fe-4S]
T1 sequence (Q9WYS6 1-404): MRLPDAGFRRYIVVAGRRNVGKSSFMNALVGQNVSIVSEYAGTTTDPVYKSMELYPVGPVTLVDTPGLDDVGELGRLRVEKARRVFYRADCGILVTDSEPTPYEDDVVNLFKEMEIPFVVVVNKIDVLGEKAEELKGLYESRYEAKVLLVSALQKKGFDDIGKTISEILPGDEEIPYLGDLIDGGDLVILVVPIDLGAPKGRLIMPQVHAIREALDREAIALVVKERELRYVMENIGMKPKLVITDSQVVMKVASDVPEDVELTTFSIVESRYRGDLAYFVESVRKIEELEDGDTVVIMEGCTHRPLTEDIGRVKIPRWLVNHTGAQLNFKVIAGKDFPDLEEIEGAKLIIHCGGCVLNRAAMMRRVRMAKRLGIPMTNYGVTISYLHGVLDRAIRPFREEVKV

[2] = molecular target: T2, HydA1 (CrHydA1) (Chlamydomonas reinhardtii, UniProt Q9FYU1); assay: in vitro reconstitution; spectroscopy; GEMMA; assay type: binding; conditions: anaerobic reconstitution of apo-protein
T2 construct: gene hyd1; His-tagged, purified recombinant; theoretical mass 49 kDa; monomer; apo-form reconstituted to [4Fe-4S]-HydA1
T2 sequence (Q9FYU1 56-497): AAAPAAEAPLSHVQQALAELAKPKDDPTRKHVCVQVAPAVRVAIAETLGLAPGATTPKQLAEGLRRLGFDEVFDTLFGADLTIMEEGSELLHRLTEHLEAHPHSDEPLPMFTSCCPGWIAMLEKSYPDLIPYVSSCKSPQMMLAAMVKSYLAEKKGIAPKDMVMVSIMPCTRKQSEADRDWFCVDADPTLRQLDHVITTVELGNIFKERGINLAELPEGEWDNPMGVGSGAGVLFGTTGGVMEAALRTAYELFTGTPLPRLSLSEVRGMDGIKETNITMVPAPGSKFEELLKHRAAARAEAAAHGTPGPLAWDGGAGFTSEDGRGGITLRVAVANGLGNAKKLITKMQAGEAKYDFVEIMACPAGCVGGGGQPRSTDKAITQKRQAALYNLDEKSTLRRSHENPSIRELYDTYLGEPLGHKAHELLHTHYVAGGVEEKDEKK

[3] = molecular target: HydF from Thermotoga maritima (Thermotoga maritima); assay: GEMMA (gas-phase electrophoretic macromolecule analysis); isolated HydF or HydA1, each as apo, [4Fe4S] and holo form; 0.02 µg/µl protein in 20 mM ammonium acetate, 0.005% Tween-20
[4] = molecular target: HydF from Thermotoga maritima (Thermotoga maritima); assay: GEMMA (gas-phase electrophoretic macromolecule analysis); mixtures of metal-free apo-HydF with HydA1 (apo, [4Fe4S] or holo); 0.02 µg/µl each protein in 20 mM ammonium acetate, 0.005% Tween-20
[5] = molecular target: HydA1 [FeFe] hydrogenase from Chlamydomonas reinhardtii (Chlamydomonas reinhardtii); assay: GEMMA (gas-phase electrophoretic macromolecule analysis); mixtures of metal-loaded HydF ([4Fe-4S]-HydF or holo-HydF) with HydA1 (apo, [4Fe4S] or holo); 0.02 µg/µl each protein in 20 mM ammonium acetate, 0.005% Tween-20
[6] = molecular target: HydF from Thermotoga maritima (Thermotoga maritima); assay: as above
[7] = molecular target: HydF from Thermotoga maritima (Thermotoga maritima); assay: SEC + other: GEMMA (gas-phase electrophoretic macromolecule analysis); fraction P1 (63 ml) of apo-HydF from Superdex-200 (50 mM Tris-HCl pH 8.0, 150 mM NaCl), then wide-scan GEMMA at 0.02 µg/µl protein in 20 mM ammonium acetate, 0.005% Tween 20; 1 mM DTT added to samples
[8] = molecular target: HydF from Thermotoga maritima (Thermotoga maritima); assay: SEC + other: GEMMA (gas-phase electrophoretic macromolecule analysis); fractions P2 of apo-HydF (70 ml) and apo-HydA1 (75 ml) from Superdex-200 (50 mM Tris-HCl pH 8.0, 150 mM NaCl), then wide-scan GEMMA at 0.02 µg/µl protein in 20 mM ammonium acetate, 0.005% Tween 20; 1 mM DTT added to samples

Molecule | in vitro reconstitution; spectroscopy; GEMMA [1] | in vitro reconstitution; spectroscopy; GEMMA [2] | stoichiometry N [3] | stoichiometry N [4] | stoichiometry N (HydF per HydA1) [5] | stoichiometry N [6] | stoichiometry N [7] | stoichiometry N [8]
[S]12[Fe]3[S]4[Fe]1[S]1[Fe]2[S]3[Fe]41 [[4Fe-4S] cluster] | The [4Fe4S] clusters in apo-HydA1, apo-HydF, and the truncated HydF apo-proteins were reconstituted | The [4Fe4S] clusters in apo-HydA1, apo-HydF, and the truncated HydF apo-proteins were reconstituted |  |  |  |  |  | 
HydF from Thermotoga maritima (natural protein) |  |  | 2 and 4 and > 6 | 2 and 4 | 2 | 2 and 4 | 4 and 2 and 6 | 2
